In publication PMC3902945 (Nucleic Acids Research, 2013):

What was measured:
Assay in all cases: SPR
[1] = biological target: C-terminal His6-tagged human UDG (uracil-DNA glycosylase) (human)
[2] = biological target: C-terminal His6-tagged SAUDG (S. aureus uracil-DNA glycosylase) (S. aureus) (UniProt Q6GJ88)
[3] = biological target: T1, C-terminal His6-tagged SAUDG (S. aureus uracil-DNA glycosylase) (S. aureus, UniProt Q6GJ88 1-218)
T1 sequence (looked up): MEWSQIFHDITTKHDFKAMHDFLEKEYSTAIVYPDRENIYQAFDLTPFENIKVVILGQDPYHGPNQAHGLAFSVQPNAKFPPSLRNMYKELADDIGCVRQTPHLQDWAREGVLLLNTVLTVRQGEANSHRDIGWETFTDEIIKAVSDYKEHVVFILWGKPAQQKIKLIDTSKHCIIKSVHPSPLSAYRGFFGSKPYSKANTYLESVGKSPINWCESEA

tag-free SAUGI (Staphylococcus aureus uracil-DNA glycosylase inhibitor) (natural protein)
Kd [1]: 2.51 nM | koff [1]: 0.00124 s⁻¹ | kon [1]: 496000 M⁻¹ s⁻¹ | Kd [2]: 1.2 nM | koff [2]: 0.00296 s⁻¹ | kon [2]: 2.47e+06 M⁻¹ s⁻¹

uracil-DNA glycosylase inhibitor from phage PBS2 (UGI) (from UniProt P14739 1-84) (natural protein)
Kd [1]: 0.189 nM | koff [1]: 0.00119 s⁻¹ | kon [1]: 6.32e+06 M⁻¹ s⁻¹

B1: uracil-DNA glycosylase inhibitor from phage PBS2 (UGI) (natural protein)
chain: MTNLSDIIEKETGKQLVIQESILMLPEEVEEVIGNKPESDILVHTAYDESTDENVMLLTSDAPEYKPWALVIQDSNGENKIKML
Kd [3]: 0.685 ± 0.08 nM | koff [3]: 0.0061 ± 0.00068 s⁻¹ | kon [3]: 8.9e+06 ± 419000 M⁻¹ s⁻¹
